Data from publication PMC2564731 (Molecular Systems Biology, 2008).

Tests used:
Experiment in all cases: pull-down
[1] = target: T1, GLABRA3 (GL3), recombinant GST or His fusion protein (Arabidopsis, UniProt Q9FN69 1-637)
T1 sequence: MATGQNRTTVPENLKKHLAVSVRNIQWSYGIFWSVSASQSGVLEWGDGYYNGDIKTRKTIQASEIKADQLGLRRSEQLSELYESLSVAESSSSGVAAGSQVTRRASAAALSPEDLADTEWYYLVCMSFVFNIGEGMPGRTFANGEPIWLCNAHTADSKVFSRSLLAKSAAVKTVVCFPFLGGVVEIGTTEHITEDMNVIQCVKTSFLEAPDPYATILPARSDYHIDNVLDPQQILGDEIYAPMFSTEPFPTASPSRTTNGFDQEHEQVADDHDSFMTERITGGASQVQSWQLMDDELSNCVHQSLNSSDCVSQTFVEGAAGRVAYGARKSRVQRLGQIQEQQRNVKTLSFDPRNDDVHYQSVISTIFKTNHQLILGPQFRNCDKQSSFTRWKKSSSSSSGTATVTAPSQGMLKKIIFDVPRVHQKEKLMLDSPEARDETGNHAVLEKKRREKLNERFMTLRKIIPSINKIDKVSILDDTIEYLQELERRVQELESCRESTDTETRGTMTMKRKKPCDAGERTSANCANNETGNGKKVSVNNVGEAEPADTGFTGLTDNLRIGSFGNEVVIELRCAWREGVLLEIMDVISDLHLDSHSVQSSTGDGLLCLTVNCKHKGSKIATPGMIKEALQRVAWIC

[2] = target: T2, ENHANCER OF GLABRA3 (EGL3), recombinant GST or His fusion protein (Arabidopsis, UniProt Q9CAD0 1-596)
T2 sequence: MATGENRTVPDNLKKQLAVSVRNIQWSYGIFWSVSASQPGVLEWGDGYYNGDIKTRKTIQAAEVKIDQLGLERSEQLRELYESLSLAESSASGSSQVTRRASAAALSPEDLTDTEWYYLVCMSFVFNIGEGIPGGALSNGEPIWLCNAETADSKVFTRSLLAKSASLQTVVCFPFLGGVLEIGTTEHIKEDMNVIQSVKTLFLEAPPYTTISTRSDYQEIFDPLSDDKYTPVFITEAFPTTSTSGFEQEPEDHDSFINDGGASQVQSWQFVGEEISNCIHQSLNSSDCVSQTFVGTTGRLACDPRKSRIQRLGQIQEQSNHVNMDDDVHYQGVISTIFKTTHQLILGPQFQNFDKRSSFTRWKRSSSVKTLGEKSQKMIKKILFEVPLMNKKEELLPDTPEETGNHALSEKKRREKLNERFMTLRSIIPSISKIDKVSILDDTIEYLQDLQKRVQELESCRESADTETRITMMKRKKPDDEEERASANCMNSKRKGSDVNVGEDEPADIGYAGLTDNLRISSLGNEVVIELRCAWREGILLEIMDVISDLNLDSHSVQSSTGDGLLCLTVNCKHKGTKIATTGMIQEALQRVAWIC

[3] = target: T3, GLABRA1 (GL1), recombinant GST or His fusion protein (Arabidopsis, UniProt P27900 1-228)
T3 sequence: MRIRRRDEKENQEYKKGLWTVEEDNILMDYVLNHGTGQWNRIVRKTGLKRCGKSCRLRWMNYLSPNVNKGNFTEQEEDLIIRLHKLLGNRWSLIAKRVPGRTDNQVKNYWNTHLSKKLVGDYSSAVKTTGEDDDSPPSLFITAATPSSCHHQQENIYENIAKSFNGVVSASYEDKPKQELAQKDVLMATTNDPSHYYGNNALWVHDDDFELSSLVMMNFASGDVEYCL

Measured: binding result

B1: TRIPTYCHON (TRY), recombinant GST or His fusion protein (natural protein)
chain: MDNTDRRRRRKQHKIALHDSEEVSSIEWEFINMTEQEEDLIFRMYRLVGDRWDLIAGRVPGRQPEEIERYWIMRNSEGFADKRRQLHSSSHKHTKPHRPRFSIYPS
binds: all assays above
